Laboratory results from article PMC7478896, “EphrinB2-EphB4 signalling provides Rho-mediated homeostatic control of lymphatic endothelial cell junction integrity” (eLife, 2020).

Target: T1, EphB4 (human (endogenous in HDLEC), UniProt P54760 16-987)
T1 sequence (looked up): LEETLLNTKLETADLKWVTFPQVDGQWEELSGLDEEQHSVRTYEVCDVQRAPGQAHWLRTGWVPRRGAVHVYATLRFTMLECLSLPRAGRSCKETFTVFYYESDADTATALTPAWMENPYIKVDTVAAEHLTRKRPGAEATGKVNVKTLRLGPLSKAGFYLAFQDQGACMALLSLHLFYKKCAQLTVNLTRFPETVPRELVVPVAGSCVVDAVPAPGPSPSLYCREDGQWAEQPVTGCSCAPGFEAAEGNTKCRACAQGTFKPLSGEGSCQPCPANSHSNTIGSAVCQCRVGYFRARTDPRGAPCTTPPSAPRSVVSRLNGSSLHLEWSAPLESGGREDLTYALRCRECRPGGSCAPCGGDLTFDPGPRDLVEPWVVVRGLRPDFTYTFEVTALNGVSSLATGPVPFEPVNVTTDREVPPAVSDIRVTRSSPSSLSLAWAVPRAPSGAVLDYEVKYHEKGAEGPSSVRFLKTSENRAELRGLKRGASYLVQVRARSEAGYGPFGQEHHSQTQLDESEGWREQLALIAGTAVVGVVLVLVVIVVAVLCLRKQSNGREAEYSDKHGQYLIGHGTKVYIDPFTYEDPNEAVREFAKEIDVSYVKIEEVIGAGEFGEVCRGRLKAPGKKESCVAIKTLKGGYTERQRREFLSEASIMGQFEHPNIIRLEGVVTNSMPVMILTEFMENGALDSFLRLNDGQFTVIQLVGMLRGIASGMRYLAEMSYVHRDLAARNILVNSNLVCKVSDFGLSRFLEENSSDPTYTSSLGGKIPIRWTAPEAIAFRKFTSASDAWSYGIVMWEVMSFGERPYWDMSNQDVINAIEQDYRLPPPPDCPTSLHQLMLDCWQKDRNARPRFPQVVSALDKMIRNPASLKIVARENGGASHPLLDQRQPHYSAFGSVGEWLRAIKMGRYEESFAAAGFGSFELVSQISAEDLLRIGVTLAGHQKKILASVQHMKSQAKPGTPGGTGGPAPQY
Assay: cell-based or functional assay

B1: recombinant human EphrinB2-Fc (Fc fusion, UniProt P52799 28-229, looked up)
chain: IVLEPIYWNSSNSKFLPGQGLVLYPQIGDKLDIICPKVDSKTVGQYEYYKVYMVDKDQADRCTIKKENTPLLNCAKPDQDIKFTIKFQEFSPNLWGLEFQKNKDYYIISTSNGSLEGLDNQEGGVCQTRAMKILMKVGQDASSAGSTRNKDPTRRPELEAGTNGRSSTTSPFVKPNPGSSTDGNSAGHSGNNILGSEVALFA
Rac1 activity (Rac1-GTP pull-down) in HDLECs after 30 min stimulation with 0.5 µg/ml clustered EphrinB2-Fc: 2 fold
